US20260242735A1 (UNIVERSIT T BASEL, published 2026)

Assays:
Assay in all cases: alanine scan, flow cytometry, HEK293-T;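 also: antibody binding to each alanine-substituted CD33 mutant expressed transiently in HEK293-T, read as fluorescence minus background, mean of duplicates, relative to wild-type CD33 set as 100%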
human CD33 L180A = human CD33 L180A (human, UniProt P20138 18-364)
human CD33 S186A = human CD33 S186A (human, UniProt P20138 18-364)
human CD33 P189A = human CD33 P189A (human, UniProt P20138 18-364)
human CD33 S195A = human CD33 S195A (human, UniProt P20138 18-364)
human CD33 V196A = human CD33 V196A (human, UniProt P20138 18-364)
human CD33 D205A = human CD33 D205A (human, UniProt P20138 18-364)
human CD33 L210A = human CD33 L210A (human, UniProt P20138 18-364)
human CD33 V214A = human CD33 V214A (human, UniProt P20138 18-364)
human CD33 A217S = human CD33 A217S (human, UniProt P20138 18-364)
human CD33 A219S = human CD33 A219S (human, UniProt P20138 18-364)
human CD33 V231A = human CD33 V231A (human, UniProt P20138 18-364)
human CD33 N237A = human CD33 N237A (human, UniProt P20138 18-364)
human CD33 P238A = human CD33 P238A (human, UniProt P20138 18-364)
human CD33 T240A = human CD33 T240A (human, UniProt P20138 18-364)
human CD33 Q171A = human CD33 Q171A (human, UniProt P20138 18-364)
human CD33 G249A = human CD33 G249A (human, UniProt P20138 18-364)
Chain of human CD33 G249A (P20138 18-364 G249A limits assumed): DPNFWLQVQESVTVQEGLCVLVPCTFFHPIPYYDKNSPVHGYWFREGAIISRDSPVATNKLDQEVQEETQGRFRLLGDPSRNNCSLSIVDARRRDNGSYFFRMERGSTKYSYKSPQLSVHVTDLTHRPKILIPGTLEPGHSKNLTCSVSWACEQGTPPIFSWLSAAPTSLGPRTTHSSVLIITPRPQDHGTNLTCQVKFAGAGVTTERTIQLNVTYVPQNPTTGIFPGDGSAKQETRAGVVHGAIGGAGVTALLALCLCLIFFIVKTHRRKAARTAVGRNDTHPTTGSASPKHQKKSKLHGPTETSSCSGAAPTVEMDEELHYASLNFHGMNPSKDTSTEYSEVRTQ

human CD33 K250A = human CD33 K250A (human, UniProt P20138 18-364)
Chain of human CD33 K250A (P20138 18-364 K250A limits assumed): as the sequence (P20138 18-364 G249A limits assumed) above, with A232G, K233A counted along it

human CD33 Q251A = human CD33 Q251A (human, UniProt P20138 18-364)
Chain of human CD33 Q251A (P20138 18-364 Q251A limits assumed): as the sequence (P20138 18-364 G249A limits assumed) above, with A232G, Q234A counted along it

human CD33 E252A = human CD33 E252A (human, UniProt P20138 18-364)
human CD33 A255S = human CD33 A255S (human, UniProt P20138 18-364)
Chain of human CD33 A255S (P20138 18-364 A255S limits assumed): as the sequence (P20138 18-364 G249A limits assumed) above, with A232G, A238S counted along it

human CD33 V258A = human CD33 V258A (human, UniProt P20138 18-364)
Chain of human CD33 V258A (P20138 18-364 V258A limits assumed): as the sequence (P20138 18-364 G249A limits assumed) above, with A232G, V241A counted along it

human CD33 A261S = human CD33 A261S (human, UniProt P20138 18-364)
human CD33 I262A = human CD33 I262A (human, UniProt P20138 18-364)
Chain of human CD33 I262A (P20138 18-364 I262A limits assumed): as the sequence (P20138 18-364 G249A limits assumed) above, with A232G, I245A counted along it

human CD33 T268A = human CD33 T268A (human, UniProt P20138 18-364)
Chain of human CD33 T268A (P20138 18-364 T268A limits assumed): as the sequence (P20138 18-364 G249A limits assumed) above, with A232G, T251A counted along it

human CD33 A269S = human CD33 A269S (human, UniProt P20138 18-364)
Chain of human CD33 A269S (P20138 18-364 A269S limits assumed): as the sequence (P20138 18-364 G249A limits assumed) above, with A232G, A252S counted along it

human CD33 C276A = human CD33 C276A (human, UniProt P20138 18-364)
human CD33 V282A = human CD33 V282A (human, UniProt P20138 18-364)
Chain of human CD33 V282A (P20138 18-364 V282A limits assumed): as the sequence (P20138 18-364 G249A limits assumed) above, with A232G, V265A counted along it

human CD33 T284A = human CD33 T284A (human, UniProt P20138 18-364)
human CD33 A293S = human CD33 A293S (human, UniProt P20138 18-364)
Chain of human CD33 A293S (P20138 18-364 A293S limits assumed): as the sequence (P20138 18-364 G249A limits assumed) above, with A232G, A276S counted along it

human CD33 T299A = human CD33 T299A (human, UniProt P20138 18-364)
human CD33 H300A = human CD33 H300A (human, UniProt P20138 18-364)
Chain of human CD33 H300A (P20138 18-364 H300A limits assumed): as the sequence (P20138 18-364 G249A limits assumed) above, with A232G, H283A counted along it

human CD33 T303A = human CD33 T303A (human, UniProt P20138 18-364)
human CD33 P308A = human CD33 P308A (human, UniProt P20138 18-364)
human CD33 K312A = human CD33 K312A (human, UniProt P20138 18-364)
Chain of human CD33 K312A (P20138 18-364 K312A limits assumed): as the sequence (P20138 18-364 G249A limits assumed) above, with A232G, K295A counted along it

human CD33 K315A = human CD33 K315A (human, UniProt P20138 18-364)
Chain of human CD33 K315A (P20138 18-364 K315A limits assumed): as the sequence (P20138 18-364 G249A limits assumed) above, with A232G, K298A counted along it

human CD33 G247A = human CD33 G247A (human, UniProt P20138 18-364)
Chain of human CD33 G247A (P20138 18-364 G247A limits assumed): as the sequence (P20138 18-364 G249A limits assumed) above, with G230A, A232G counted along it

| Binder | Mean % WT Binding (human CD33 G249A) [% WT binding] | Mean % WT Binding (human CD33 K250A) [% WT binding] | Mean % WT Binding (human CD33 Q251A) [% WT binding] | Mean % WT Binding (human CD33 E252A) [% WT binding] | Mean % WT Binding (human CD33 A255S) [% WT binding] | Mean % WT Binding (human CD33 V258A) [% WT binding] | Mean % WT Binding (human CD33 A261S) [% WT binding] | Mean % WT Binding (human CD33 I262A) [% WT binding] | Mean % WT Binding (human CD33 T268A) [% WT binding] | Mean % WT Binding (human CD33 A269S) [% WT binding] | Mean % WT Binding (human CD33 C276A) [% WT binding] | Mean % WT Binding (human CD33 V282A) [% WT binding] | Mean % WT Binding (human CD33 T284A) [% WT binding] | Mean % WT Binding (human CD33 A293S) [% WT binding] | Mean % WT Binding (human CD33 T299A) [% WT binding] | Mean % WT Binding (human CD33 H300A) [% WT binding] | Mean % WT Binding (human CD33 T303A) [% WT binding] | Mean % WT Binding (human CD33 P308A) [% WT binding] | Mean % WT Binding (human CD33 K312A) [% WT binding] | Mean % WT Binding (human CD33 K315A) [% WT binding] | other results |
| --- | --- | --- | --- | --- | --- | --- | --- | --- | --- | --- | --- | --- | --- | --- | --- | --- | --- | --- | --- | --- | --- |
| Refmab #1 (antibody, V domains shown, In the alanine scan antibodies were used as IgG or Fab; also called hP67.6) VH: EVQLVQSGAEVKKPGSSVKVSCKASGYTITDSNIHWVRQAPGQSLEWIGYIYPYNGGTDYNQKFKNRATLTVDNPTNTAYMELSSLRSEDTAFYYCVNGNPWLAYWGQGTLVTVSS VL: DIQLTQSPSTLSASVGDRVTITCRASESLDNYGIRFLTWFQQKPGKAPKLLMYAASNQGSGVPSRFSGSGSGTEFTLTISSLQPDDFATYYCQQTKEVPWSFGQGTKVEVK | – | – | – | – | – | – | – | – | – | – | – | – | – | – | – | – | – | – | – | – | Mean % WT Binding (human CD33 L180A): 91.3%; Mean % WT Binding (human CD33 S186A): 92.5%; Mean % WT Binding (human CD33 P189A): 89.2%; Mean % WT Binding (human CD33 S195A): 86.9%; Mean % WT Binding (human CD33 V196A): 83.9%; Mean % WT Binding (human CD33 D205A): 1.6%; Mean % WT Binding (human CD33 L210A): 93%; Mean % WT Binding (human CD33 V214A): 80.5%; Mean % WT Binding (human CD33 A217S): 80.2%; Mean % WT Binding (human CD33 A219S): 104%; Mean % WT Binding (human CD33 V231A): 100%; Mean % WT Binding (human CD33 N237A): 98.7%; Mean % WT Binding (human CD33 P238A): 101%; Mean % WT Binding (human CD33 T240A): 111%; Mean % WT Binding (human CD33 Q171A): 90.8% |
| Refmab #4 (antibody, V domains shown, In the alanine scan antibodies were used as IgG or Fab) VH: QVQLVQSGAEVKKPGESVKVSCKASGYTFTNYGMNWVKQAPGQGLEWMGWINTYTGEPTYADKFQGRVTMTTDTSTSTAYMEIRNLGGDDTAVYYCARWSWSDGYYVYFDYWGQGTSVTVSS VL: DIVMTQSPDSLTVSLGERTTINCKSSQSVLDSSTNKNSLAWYQQKPGQPPKLLLSWASTRESGIPDRFSGSGSGTDFTLTIDSPQPEDSATYYCQQSAHFPITFGQGTRLEIK | – | – | – | – | – | – | – | – | – | – | – | – | – | – | – | – | – | – | – | – | Mean % WT Binding (human CD33 L180A): 101%; Mean % WT Binding (human CD33 S186A): 121%; Mean % WT Binding (human CD33 P189A): 98.2%; Mean % WT Binding (human CD33 S195A): 112%; Mean % WT Binding (human CD33 V196A): 102%; Mean % WT Binding (human CD33 D205A): 0.1%; Mean % WT Binding (human CD33 L210A): 92.3%; Mean % WT Binding (human CD33 V214A): 101%; Mean % WT Binding (human CD33 A217S): 61.1%; Mean % WT Binding (human CD33 A219S): 112%; Mean % WT Binding (human CD33 N237A): 72.9%; Mean % WT Binding (human CD33 P238A): 117%; Mean % WT Binding (human CD33 T240A): 76.8%; Mean % WT Binding (human CD33 Q171A): 102% |
| Refmab #1 (antibody, V domains shown, The alanine scan used IgG or Fab; also called hP67.6) VH: EVQLVQSGAEVKKPGSSVKVSCKASGYTITDSNIHWVRQAPGQSLEWIGYIYPYNGGTDYNQKFKNRATLTVDNPTNTAYMELSSLRSEDTAFYYCVNGNPWLAYWGQGTLVTVSS VL: DIQLTQSPSTLSASVGDRVTITCRASESLDNYGIRFLTWFQQKPGKAPKLLMYAASNQGSGVPSRFSGSGSGTEFTLTISSLQPDDFATYYCQQTKEVPWSFGQGTKVEVK | 89.2 | 86.7 | 98.8 | 98.8 | 98.8 | 99.8 | 84.1 | 89.7 | 102 | 107 | 83.4 | 109 | 92.8 | 90.6 | 90.3 | 76.5 | 94 | 94.3 | 83.8 | 80.6 | Mean % WT Binding (human CD33 G247A): 98.5 % WT binding |
| Refmab #2 (antibody, V domains shown, The alanine scan used IgG or Fab) VH: QVQLVQSGAEVKKPGSSVKVSCKASGGTFSDYAISWVRQAPGQGLEWMGRIIPILGVADYAQKFQGRVTITADKSTRTAYMELSSLRSEDTAVYYCARNWADAFDIWGQGTMVTVSS VL: DIQLTQSPSSLSASVGDRVTITCRASQGISSVLAWYQQKPGKAPKLLIYDASSLESGVPSRFSGSGSGTDFTLTISSLQPEDFATYYCQQFDSSITFGQGTKLEIK | 127 | 108 | 117 | 116 | 109 | 111 | 100 | 115 | 107 | 111 | 103 | 112 | 119 | 114 | 96.3 | 98.9 | 96.7 | 89.7 | 110 | 111 | Mean % WT Binding (human CD33 G247A): 110 % WT binding |
| Refmab #3 (antibody, V domains shown, The alanine scan used IgG or Fab) VH: QVQLVQSGAEVKKPGSSVKVSCKASGYTFTDYNMHWVRQAPGQGLEWIGYIYPYNGGTGYNQKFKSKATITADESTNTAYMELSSLRSEDTAVYYCARGRPAMDYWGQGTLVTVSS VL: DIQMTQSPSSLSASVGDRVTITCRASESVDNYGISFMNWFQQKPGKAPKLLIYAASNQGSGVPSRFSGSGSGTDFTLTISSLQPDDFATYYCQQSKEVPWTFGQGTKVEIK | 132 | 146 | 93.3 | 96.3 | 97.7 | 106 | 121 | 130 | 91.5 | 97.4 | 115 | 73.2 | 83.2 | 72.9 | 85.6 | 68.3 | 72.7 | 82.8 | 99.6 | 136 | Mean % WT Binding (human CD33 G247A): 106 % WT binding |
| Refmab #4 (antibody, V domains shown, The alanine scan used IgG or Fab) VH: QVQLVQSGAEVKKPGESVKVSCKASGYTFTNYGMNWVKQAPGQGLEWMGWINTYTGEPTYADKFQGRVTMTTDTSTSTAYMEIRNLGGDDTAVYYCARWSWSDGYYVYFDYWGQGTSVTVSS VL: DIVMTQSPDSLTVSLGERTTINCKSSQSVLDSSTNKNSLAWYQQKPGQPPKLLLSWASTRESGIPDRFSGSGSGTDFTLTIDSPQPEDSATYYCQQSAHFPITFGQGTRLEIK | 111 | 106 | 97.5 | 115 | 113 | 95.8 | 65.8 | 111 | 100 | 83.6 | 96.9 | 111 | 111 | 106 | 92.9 | 95.2 | 81.2 | 99.8 | 98.9 | 48.4 | Mean % WT Binding (human CD33 G247A): 113 % WT binding |
